US20130315928A1

Experiments:
[1] = target: equine choriogonadotropin (eCG) or PMSG (equine) (UniProt P01220); experiment: ELISA on commercial eCG, antibody at 1 µg/ml
[2] = target: equine choriogonadotropin (eCG) or PMSG (equine) (UniProt P01220); experiment: ELISA on commercial eCG, antibody at 10 µg/ml

Chain of equine choriogonadotropin (eCG) or PMSG (equine) (P01220 25-120 limits assumed, chain 1 of 2): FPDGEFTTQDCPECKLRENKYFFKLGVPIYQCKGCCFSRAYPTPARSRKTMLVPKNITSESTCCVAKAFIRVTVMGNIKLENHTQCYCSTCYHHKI
Chain of equine choriogonadotropin (eCG) or PMSG (equine) (P08751 21-169 limits assumed, chain 2 of 2, further chain): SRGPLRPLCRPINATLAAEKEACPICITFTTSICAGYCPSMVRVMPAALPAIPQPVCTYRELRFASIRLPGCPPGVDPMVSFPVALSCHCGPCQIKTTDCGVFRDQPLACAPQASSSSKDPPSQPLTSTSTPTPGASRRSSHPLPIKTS

isotypic control (IgM directed against another type of antigen very remote from the gonadotropic hormones) (antibody)
OD [1]: 0.09 OD
OD [2]: 0.09 OD
